Assay results from the DeepSol protein solubility set.

assay: soluble on expression in E. coli; label from the status in PepcDB or PDB records

Sequence | soluble on expression in E. coli
MGSDKIHHHHHHMEMAIYCGKTYSWANELCSKPLKEVKVVDYNSVVDWVNSQKERAFLIFGTDVIPYSLYEYPKIPVNETPLFKFMERGGVVIWTGDVPFFYIEKDGIKKELFSKGNPFPFKPISVMGHKPLSEKSENSIVGEMLKYDPKDSWRPVEPHPLLIPISIVKSHPYTLYSTWIYKYGKGAFVRLYDSPYVNTQYILSLPERLSSLGIGIRISNFRRFRDFKMIFPEFKIGVILGKNNVGKTTILEAIAMLGKNEDKIRKFRGNISTEIAETELFVNYTYYKAEFSYSQVNRSADVNVLLIYSHDIDFVIDDKVLPYVKSSLRKVTELLNSFDPNIFYVYLSSGNELRVLFNDRTDVSINELGYGYKSLLNFILLYVIYQPRIILIDDLEGFALHPDLLKMFYDLLLKIDVDLILITTQSSDIYAYLAEKRSDKVRFILINDDKYEVLTSEEVLDRLYYEDLRYTALKIH | not soluble
MLKSIILLICAHCAFSDRLDAGSQADCVAAANKIYNNEWGFDHKLVYDKELEPFAAETPCGIAYLQNGLAEVGSGGAHTSVNLREEHTRIACVPKKCGGVEVACAVGGPSMALNLKRKIRKLRQIRCLRTFGATVTLKN | not soluble
MHQVYVDIIVDAIIEQYQTEENFYSAYQIQAADWQAWKEGQFGLDNEVMQKIKNLFTDYEWMLTQKILRQTILFPEKRNLAVSEYKRLKTTIAKKWLQSDLGVVELIPNNKQEQEIAAGYIDLKVTLAYGEWGFDDIITFRLPATIQRQLEGSKVELLDWVNENLMDTYVGE | not soluble
MNFENDDIIHAPTTSSLILEERHDSELFRVYALILDGITDQVLLPGKKLTESELCRQMVCSRNTVRGALSLLAHDKIVDLQPNRGAFVHVPDLKEMQDVFNARIEMETMILNILADLPDLETRLKPLYAMIRREEEASGRGDRVGWNRLSNAFHVELARLVGNDVLFDIMNTLCARSSLIVAVAGVHREEKHAINTHTHSEHREILDLLLAGRRNRVVKILRRHLGNCMERLEKTLED | not soluble
MGSDKIHHHHHHMSRQKFVNRERELAFLEERYASGDAELLIIYGRRRIGKTELLLHFARNKEHVYFLASEKPYRDNLRELQRMMGDFLGDRLFSRIEFSDIDELLIEFSKRVRGRRVVLIIDEFPYLIEHYKPVLSLIQRAWDMELSKSDLLLILCGSSVSSMETEVLGYKSPLYGRRTGQWMVDELPFWSLREFFPSYSTEDIVKVYGVLGGIPAYLLQFDPEKSFDENVVEKVLSKGAFLYEEAEILLKEEMREPANYFIILQAIASGRSRFGEIVNATGLDKSLVSKYLNVLEKLRIVEREVPVTASRKEALKRGKYSITDNYLAFWFRYVLPNKSYLETGLGKEIWERSKEDFKEYMGGVFERLLRKPEVFTKLTNFRFTKIGRWWHKGEEIDLVALNEREKKALFIEVKWKDLSEREARGILKDLKRKVKLVGLDEWGKHYGLVAKNVKGKDKIKEEGWLAWDLEDFERLGVSG | not soluble
MGHHHHHHSHMETLSNASGTFAIRLLKILCQDNPSHNVFCSPVSISSALAMVLLGAKGNTATQMAQALSLNTEEDIHRAFQSLLTEVNKAGTQYLLRTANRLFGEKTCQFLSTFKESCLQFYHAELKELSFIRAAEESRKHINTWVSKKTEGKIEELLPGSSIDAETRLVLVNAIYFKGKWNEPFDETYTREMPFKINQEEQRPVQMMYQEATFKLAHVGEVRAQLLELPYARKELSLLVLLPDDGVELSTVEKSLTFEKLTAWTKPDCMKSTEVEVLLPKFKLQEDYDMESVLRHLGIVDAFQQGKADLSAMSAERDLCLSKFVHKSFVEVNEEGTEAAAASSCFVVAECCMESGPRFCADHPFLFFIRHNRANSILFCGRFSSP | not soluble
MGSDKIHHHHHHMERYNTMSGKKTESSDNIVLYPGLVKRLIEKGMEALKEKDAKKALTMFEQAEQYDAEPSQILFGKALCYVELGKLDDAVLLTDQMLRNDIGNYYDILQIHLSLLVQLGRYDEVVEMLDVVLAEDRLPAKHAESFYQLLHFSRQMVEDSPTYIKEPLSEELDLKETYDDINERDSLEQWHFLQQMRKHNNPADIRTLLSFVESESNDPALRSYALHMLTMHKVEKRVRIRKFDQEAEVIPVELNADEQQRFGNAVVEQLEARLAVENPSLFKMAEQLWWQFLYALYPFTPKPEQKDLWAGAVHVAVHESNGLPFDEEEIAGMYNCRVQQMLEKGEEIHFVETETFQGISGHSFR | not soluble
MPRTRVNLQKSEANDRSFTISSLEFCLSQLRKADPNLVKKAIASGDGLTESKNDVSTRLSEAHRYSVQQCLDNSEQLAQLHNQLVHCDNVFERLQATLYSFQDNLGSIGQDMKNLQLQSHHIHQELENRQKVRVELSQFVDDIAVSQTMMKTINDTDANDRGFLEALHELHHKITLILQRGNGDAVAVNDTMPILEGLKLKAVVKVREWLLQKMFQFRKPLSNYQVFQHQLLKCRFFYEFLLHHDLISAKELQDEYIDTISKMFFTYFKAYATRLFKLAMKDVATKEDALGSIDFAKPAGLGAIFSSKQHVVRNKATVFSIGQRHQILSDDFLGALIVPHAVTQNHQSVYLTIELAMARAMSVVLKSCEEQIALSWDAISLHLCICLCDKFTEVLAEREVPEVSDYWNTVTSFLWTRLNLVMSQHYESVKSVDLKKLMHSGSLDARPHFIVRRYAELTSAHLMIAKASGKEMGAKMEAVLENSEDSIEQLLTRMSAMQQTQKNKHVFLINNYDLILSIIDNEESKHTKIYAIVHELEQKSIDDFVEEMLEPHIGYMIKFVNECESLIVQGHTQLLVRYNDKVGTVVANFNAKWRPAVDSINSECIQLFTNFSLGTTILQTIFTKYVQYINRFTKILSHDVFAKNPVCSQLVNVHQVMLEIKRFKPAY | not soluble
MSTKEIICTLKGQFFLSPREEKFLRLLEEMGIPEEDIQEGIRECLKSVSPKKRKNFPLFKCFSKILEVNKVRALERGKREHLDWKRVFERKVSVVKHLLDFNYTEPKTEEEAEKTLQEIERKIFKKLWENLDKERKREIYNKYKEVKEDEELFKELIKHELRKIFQIPVLSLYVD | not soluble
MSLEEIETDVLVIGGGPGGMSAAINAGKYGAKVLLVDENPFLGGQLVKQTHRFFGSAKERAGTRGIKIAGILEEELNSIENVEVRRETRVFGIYNGEAGAYQRLNDDEGKLLRIKAKKIVVATGAYERTLIFENNDLPGVYGAGGVQTLMNVYGIKPGNMGLIVGSGNVGLILTYQLMQAGVNVAAIVEAMPRIGGYFVHAAKVRRLGVPIYVRHTILKAIGRKSVEGAVIAQLDDRWQPIPGTEKEIKCDFICVAVGLSPTHELLYQAGCEMKFVPELGGIVPLRTRFNETSVKGLYVAGDVAGIEEATAAIMEGRIAGIHAAVTLGYGGEEAKKELDEAVKEIEEFRAGPFGERIVCGLEKCTLESEGHHHHHH | soluble
ADPDVLTEVPAALKRLAKYVIRGFYGIEHALALDILIRNSCVKEEDMLELLKFDRKQLRSVLNNLKGDKFIKCRMRVETAADGKTTRHNYYFINYRTLVNVVKYKLDHMRRRIETDERDSTNRASFKCPVCSSTFTDLEANQLFDPMTGTFRCTFCHTEVEEDESAMPKKDARTLLARFNEQIEPIYALLRETEDVNLAYEILEPEPTEIPALKQSKDHAATTAGAASLAGGHHREAWATKGPSYEDLYTQNVVINMDDQEDLHRASLEGKSAKERPIWLRESTVQGAYGSEDMKEGGIDMDAFQEREEGHAGPDDNEEVMRALLIHEKKTSSAMAGSVGAAAPVTAANGDDSESETSESDDDSPPRPAAVAVHKREEDEEEDDEFEEVADDPIVMVAGRPFSYSEVSQRPELVAQMTPEEKEAYIAMGQRMFEDLFE | not soluble
MKIKVISRNPNTYQRETTDKRNKIVRNFNTPADPFRSQVEYTRALNATKLERVFAKPFVASLDGHVDGVQVLAKHPNRPSTVFSGARDGQVKIWNLASRECQATLDAHRGLVNDISIDNNNGENFVTVGQDNQLKYWKIEGQQKTPAHSIAMDGIVYGVSHLSFSSDFVTCGEDISVWKPYRETPLRSYNLGTDTIHTCRANPVEENVIVGARSDRSIYVLDTRQDVPLKKVTMKMRPNKISWNPMEAYNFTVASEDYSLYTFDMRYMEHPVQSHQGFTSAVLDVDYSPTGQEFVAAGYDRSIRLFKARDMTSRDVYYTKRMASVLSVLWSADSKFVLSGSNEMNIRVWKANAAEKLGPLTKREKQAFAYNEKLRDTYKNHPEVRRIAKHRNVPRHIFTAAKEHKLIRDARGRRDFRRAKAAGLDEEESYLPQTQKIMVGDAEM | not soluble
RRLIRLSDKTIAKSLNTSKFGGDELRRIGFHIRFHRAGALFARCWLLVEGETEVWLFNELARQCGYDLAAEGVQIVEFAQSGLRSLIKVAKEFGIDWHVVTDGDPAGKKYAHTVRAQLGHDQERHRLTELPDRDIEHFLYNHGFELFFKDMIKVPHDHPIPAKKVVNRVLKKHAKPDLALAIVSHCEEKGMECIPVLLRWTLKRIVTMASGNT | not soluble
MTKIMIIGANGGIAKKLTQRLLAETDDELVLFLRRAERLAQYREQPRVTLIDGNVLDTDELATAMAPVDIVYSNVGGTDLAAQTKSILAAMARTQRQRLIFISALGAHHEVPGKFGAWNEQAIADFLPGFREAARLLSASELVYTEIRPAWLTDVAEIDYELTTGAEPFKGTEVSRASVADLVFKLMAHPENYQRVSLGVDEPGTAGDRPSWLLEHHHHHH | not soluble
MSLSAGETDERLRIATTTSLYDTKLLDTLESRFEEKYGIEVDVISGGTGFALEQGRRGDVDLLLVHDKAREYEFIAEGYGTERRCFAYNYFYIVGPADDPAGIKGTNASEAFRMIADAGEKNSNVRFVSRGDNSGTHAREKLLWKSAGIEPSGSWYLESGQGMGATLIMVDEKRAYTLTDMSTYMAFAGNLSLVPLVTESEELLNVYAAIPVSASEHLDDAERFVEFLLSQEGQEIIAGYGKDIYGRALFYPAAGHCTEIGCNATECPGEMVSAFGEGHHHHHH | soluble
MGSDKIHHHHHHMKMSEKKEARVVINDLLAEQYANAFKAKEEGRPVGWSTSVFPQELAEVFDLNVLYPENQAAGVAAKKGSLELCEIAESKGYSIDLCAYARTNFGLLENGGCEALDMPAPDFLLCCNNICNQVIKWYENISRELDIPLIMIDTTFNNEDEVTQSRIDYIKAQFEEAIKQLEIISGKKFDPKKFEEVMKISAENGRLWKYSMSLPADSSPSPMNGFDLFTYMAVIVCARGKKETTEAFKLLIEELEDNMKTGKSSFRGEEKYRIMMEGIPCWPYIGYKMKTLAKFGVNMTGSVYPHAWALQYEVNDLDGMAVAYSTMFNNVNLDRMTKYRVDSLVEGKCDGAFYHMNRSCKLMSLIQYEMQRRAAEETGLPYAGFDGDQADPRAFTNAQFETRIQGLVEVMEERKKLNRGEI | not soluble
TCSQPNNFPAEIPLYKQSFKNWAGDIKVDDVWTCAPRSADEVVKVANWAKDNGYKVRARGMMHNWSPLTLAAGVSCPAVVLLDTTRYLTAMSIDASGPVAKVTAQAGITMEALLTGLEKAGLGVTAAPAPGDLTLGGVLAINGHGTAIPAKGERRLAGASYGSISNLVLSLTAVVYDKASGAYALRKFARNDPQIAPLLAHVGRSLIVEATLQAAPNQRLRCQSWFNIPYGEMFAAAGSGGRTFASYLDSAGRVEAIWFPFTSNPWLKVWTVTPNKPLFSRQTDKPFNYPFSDNLPDEVTDLANKILSLGDGKLTPAFGKAQFAAASAGLVATASWDLWGWSKNLLLYVKPTTLRVTANGYAVLTRRENVQRVLNEFVTFYQARVQAYQQQGRYPMNGPVEIRVTGLDDPSEAALSGGVAPALSAIRPRPDHPEWNVAVWLDILTLPGTPYANQFYREIEQWIEANFNGSYAAVRPEWSKGWGYTDQAAWADSAMLQTTIPNAFRAGQPAAANWDAAKAALAAYDPYRLFSSPLLDSLGL | soluble
MRSKLNQYNQKRNFTRTLEPEGITEMPQEGLRFVVQHHLARRDHYDLRLEWDGAMLSWAVPKGPSYNTWDKRLAVQVEDHPLEYRHFEGTIPKGEYGGGVVMLWDEGFWEPYVDVDGGLHEGMLKFVLKGRRLKGRWALVRMKGKAGDKKDNWLLLKEKDDYVQTADGISQFTTSLEHHHHHH | not soluble
